Data taken from patent publication EP4717714A1 (Shanghai Junshi Biosciences Co., Ltd., dated 2026).

B1: JS001 (recombinant humanized anti-PD-1 monoclonal antibody reference article, Toripalimab) (antibody, human IgG4 S228P, kappa, V domains shown)
VH: QGQLVQSGAEVKKPGASVKVSCKASGYTFTDYEMHWVRQAPIHGLEWIGVIESETGGTAYNQKFKGRVTITADKSTSTAYMELSSLRSEDTAVYYCAREGITTVATTYYWYFDVWGQGTTVTVSS
VL: DVVMTQSPLSLPVTLGQPASISCRSSQSIVHSNGNTYLEWYLQKPGQSPQLLIYKVSNRFSGVPDRFSGSGSGTDFTLKISRVEAEDVGVYYCFQGSHVPLTFGQGTKLEIKR
notes: also called TAB001; anti-PD-1 monoclonal antibody JS001
B2: Bispecific antibody molecule 23 (bispecific antibody, human IgG4 S228P, kappa)
light: DVVMTQSPLSLPVTLGQPASISCRSSQSIVHSNGNTYLEWYLQKPGQSPQLLIYKVSNRFSGVPDRFSGSGSGTDFTLKISRVEAEDVGVYYCFQGSHVPLTFGQGTKLEIKRTVAAPSVFIFPPSDEQLKSGTASVVCLLNNFYPREAKVQWKVDNALQSGNSQESVTEQDSKDSTYSLSSTLTLSKADYEKHKVYACEVTHQGLSSPVTKSFNRGEC
heavy: not shown
notes: expressed in CHO-K1; also called Antibody 23; antibody 23 (IgG4)
B3: Bispecific antibody molecule 24 (bispecific antibody, human IgG4 S228P, kappa)
light: DVVMTQSPLSLPVTLGQPASISCRSSQSIVHSNGNTYLEWYLQKPGQSPQLLIYKVSNRFSGVPDRFSGSGSGTDFTLKISRVEAEDVGVYYCFQGSHVPLTFGQGTKLEIKRTVAAPSVFIFPPSDEQLKSGTASVVCLLNNFYPREAKVQWKVDNALQSGNSQESVTEQDSKDSTYSLSSTLTLSKADYEKHKVYACEVTHQGLSSPVTKSFNRGEC
heavy: not shown
notes: Anti-PD-1 IgG4 (JS001) with the anti-VEGF VHH at the C-terminus of each heavy chain; also called Antibody 24; antibody 24 (IgG4)
B4: Bispecific antibody molecule 27 (bispecific antibody, human IgG4 S228P, kappa)
light: DVVMTQSPLSLPVTLGQPASISCRSSQSIVHSNGNTYLEWYLQKPGQSPQLLIYKVSNRFSGVPDRFSGSGSGTDFTLKISRVEAEDVGVYYCFQGSHVPLTFGQGTKLEIKRTVAAPSVFIFPPSDEQLKSGTASVVCLLNNFYPREAKVQWKVDNALQSGNSQESVTEQDSKDSTYSLSSTLTLSKADYEKHKVYACEVTHQGLSSPVTKSFNRGEC
heavy: not shown
notes: Anti-PD-1 IgG4 (JS001) with the anti-VEGF VHH inserted between CH1 and the hinge of each heavy chain; also called Antibody 27; antibody 27 (IgG4)

Assays:
[1] = biological target: T1, Recombinant human PD-1 (prepared by Suzhou Junmeng Biopharm Co., Ltd. according to the sequence of NCBI … (human, UniProt Q15116 25-170, limits assumed)); assay: indirect ELISA, human PD-1 coated at 0.3 µg/mL (FIG. 6b)
T1 construct: Soluble recombinant protein used in BLI and coated in ELISA; also called antigen PD-1

[2] = biological target: T1, Recombinant human PD-1 (prepared by …); assay: BLI (Octet RED96e), antibody captured at 5 µg/mL, PD-1 at 210 and 70 nM
[3] = biological target: T1, Recombinant human PD-1 (prepared by …); assay: competitive ELISA, PD-1 coated, competitor Biotin-PD-L1 hFc at 4.0 µg/mL (FIG. 9a)
[4] = biological target: T1, Recombinant human PD-1 (prepared by …); assay: indirect ELISA, human PD-1 coated at 0.3 µg/mL (FIG. 6a)
[5] = biological target: T1, Recombinant human PD-1 (prepared by …); assay: competitive ELISA, PD-1 coated, competitor Biotin-PD-L1 hFc at 4.0 µg/mL (FIG. 9b)
[6] = biological target: T2, Recombinant human VEGFA (Sino Biological, catalog number 11066-HNAB) (human); assay: indirect ELISA on coated human VEGF; stability sample, 5°C, 0 week
T2 construct: also called VEGF antigen; Human/Cynomolgus VEGF/VEGFA/VEGF165 Protein
T2 chain: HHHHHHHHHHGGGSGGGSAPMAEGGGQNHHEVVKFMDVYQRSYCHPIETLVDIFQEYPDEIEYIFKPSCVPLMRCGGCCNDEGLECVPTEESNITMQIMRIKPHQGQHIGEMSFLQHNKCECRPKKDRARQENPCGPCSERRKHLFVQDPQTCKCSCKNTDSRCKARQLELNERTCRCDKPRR

[7] = biological target: T2, Recombinant human VEGFA (Sino …); assay: indirect ELISA on coated human VEGF; sample in human serum, 37°C, 2 week
[8] = biological target: T1, Recombinant human PD-1 (prepared by …); assay: indirect ELISA on coated human PD-1, relative to TAB001 (JS001) control
[9] = biological target: T1, Recombinant human PD-1 (prepared by …); assay: indirect ELISA on coated human PD-1; sample in human serum, 37°C, 4 week
[10] = biological target: T2, Recombinant human VEGFA (Sino …); assay: competitive ELISA against VEGFR2 on coated VEGFA, relative to Avastin control
[11] = biological target: T2, Recombinant human VEGFA (Sino …); assay: BLI (Octet RED96e), told of the group
[12] = biological target: T2, Recombinant human VEGFA (Sino …); assay: indirect ELISA on coated human VEGFA, relative to Avastin control
[13] = biological target: T2, Recombinant human VEGFA (Sino …); assay: indirect ELISA on coated human VEGF; stability sample, 5°C, 4 week
[14] = biological target: T1, Recombinant human PD-1 (prepared by …); assay: indirect ELISA on coated human PD-1; stability sample, 5°C, 0 week
[15] = biological target: Human PD-1 on the cell surface (Jurkat PD-1 effector cells, Promega); CD4 T cells in the mixed lymphocyte … (human, UniProt Q15116 25-288); assay: cell-based or functional assay
[16] = biological target: T2, Recombinant human VEGFA (Sino …); assay: cell-based or functional assay
[17] = biological target: T1, Recombinant human PD-1 (prepared by …); assay: indirect ELISA on coated human PD-1; sample in human serum, 37°C, 0 week
[18] = biological target: T2, Recombinant human VEGFA (Sino …); assay: indirect ELISA on coated human VEGF; sample in human serum, 37°C, 4 week
[19] = biological target: T1, Recombinant human PD-1 (prepared by …); assay: indirect ELISA on coated human PD-1; stability sample, 5°C, 4 week
[20] = biological target: T2, Recombinant human VEGFA (Sino …); assay: competitive ELISA, VEGFA coated, competitor biotinylated VEGFR2 at 0.3 µg/mL (FIG. 8a)
[21] = biological target: T1, Recombinant human PD-1 (prepared by …); assay: indirect ELISA on coated human PD-1; sample in human serum, 37°C, 2 week
[22] = biological target: T2, Recombinant human VEGFA (Sino …); assay: BLI (Octet RED96e), antibody captured at 5 µg/mL, VEGFA at 50 and 25 nM
[23] = biological target: T2, Recombinant human VEGFA (Sino …); assay: indirect ELISA on coated human VEGF; stability sample, 5°C, 2 week
[24] = biological target: T2, Recombinant human VEGFA (Sino …); assay: indirect ELISA on coated human VEGF; sample in human serum, 37°C, 0 week
[25] = biological target: T2, Recombinant human VEGFA (Sino …); assay: indirect ELISA, human VEGFA coated at 0.5 µg/mL (FIG. 7a)
[26] = biological target: T1, Recombinant human PD-1 (prepared by …); assay: competitive ELISA against PD-L1 hFc on coated PD-1, relative to TAB001 (JS001) control
[27] = biological target: T2, Recombinant human VEGFA (Sino …); assay: competitive ELISA, VEGFA coated, competitor biotinylated VEGFR2 at 0.3 µg/mL (FIG. 8b)
[28] = biological target: T2, Recombinant human VEGFA (Sino …); assay: indirect ELISA, human VEGFA coated at 0.5 µg/mL (FIG. 7b)

Binder | Kd [2] [nM] | koff [2] [s⁻¹] | kon [2] [M⁻¹ s⁻¹] | IC50 [3] [nM] | EC50 [4] [nM] | Binding activity (%), VEGF end [6] [%] | Binding activity (%), VEGF end [7] [%] | Relative binding activity (%) [8] [%] | Binding activity (%), PD-1 end [9] [%] | Relative binding activity (%) [10] [%] | Kd [11] [nM] | Relative binding activity (%) [12] [%] | Binding activity (%), VEGF end [13] [%] | Binding activity (%), PD-1 end [14] [%] | EC50, PD-1/PD-L1 luciferase reporter gene system (Jurkat PD-1 / CHO PD-L1) [15] [nM] | IC50, VEGFA-induced proliferation of HUVEC cells [16] [nM] | Binding activity (%), PD-1 end [17] [%] | Binding activity (%), VEGF end [18] [%] | Binding activity (%), PD-1 end [19] [%] | Binding activity (%), PD-1 end [21] [%] | other results
B1 | 0.584 | 3.93e-05 | 67300 | 135 | 3.6 |  |  |  |  |  |  |  |  |  |  |  |  |  |  |  | EC50 [1]: 18.3 nM; IC50 [5]: 255 nM
B2 | 1.73 | 7.73e-05 | 44800 | 293 | 6.93 | 99 | 96 | 52 | 82 | 97 | < 0.5 | 175 | 81 | 105 | 11.9 | 81.1 | 121 | 79 | 97 | 95 | IC50 [20]: 679 nM; Kd [22]: < 0.0186 nM; koff [22]: < 1e-05 s⁻¹; kon [22]: 538000 M⁻¹ s⁻¹; Binding activity (%), VEGF end [23]: 104%; Binding activity (%), VEGF end [24]: 98%; EC50 [25]: 2.05 nM; Relative binding activity (%) [26]: 46%
B3 | 1.21 | 9.38e-05 | 77600 | 243 | 14.6 | 100 | 81 | 25 | 89 | 61 | < 0.5 | 27 | 102 | 94 | 8.17 | 88 | 106 | 95 | 86 | 63 | IC50 [20]: 1080 nM; Kd [22]: 0.191 nM; koff [22]: 7.92e-05 s⁻¹; kon [22]: 414000 M⁻¹ s⁻¹; Binding activity (%), VEGF end [23]: 85%; Binding activity (%), VEGF end [24]: 104%; EC50 [25]: 13.2 nM; Relative binding activity (%) [26]: 55%
B4 | 0.864 | 5.57e-05 | 64400 |  |  | 97 | 86 | 77 | 83 | 85 | < 0.5 | 53 | 104 | 95 | 16.9 | 104 | 93 | 78 | 107 | 86 | EC50 [1]: 23.8 nM; IC50 [27]: 3560 nM; Kd [22]: 0.0521 nM; koff [22]: 4.24e-05 s⁻¹; kon [22]: 815000 M⁻¹ s⁻¹; Binding activity (%), VEGF end [23]: 92%; Binding activity (%), VEGF end [24]: 101%; EC50 [28]: 6.62 nM; Relative binding activity (%) [26]: 86%; IC50 [5]: 297 nM
